Results as given in PMC8972186.

Assays:
[1] = molecular target: dynamic microtubules grown from purified bovine brain tubulin (bovine) (UniProt Q6B856); assay: optical trap force clamp assay
[2] = molecular target: dynamic microtubules grown from purified bovine brain tubulin (bovine) (UniProt Q6B856); assay: optical trap rupture force assay

percent of beads tracking with shortening microtubule tips under 1.5 pN [1]: 7% | median rupture strength [2]: 3.2 pN
Substance: wild-type Ndc80 complex (from UniProt P40460 1-691; P33895 1-451; Q04477 1-213; P40014 1-221)
